In US7265202:
Values belong to the binder of their own block, whether it stands above or below them.

Legend:
Assay in all cases: cell-based or functional assay
[1] = molecular target: STAT3-STAT3 homodimer (human) (UniProt P40763)
[2] = molecular target: STAT3-STAT1 heterodimer (human) (UniProt P40763)
[3] = molecular target: STAT3 (from a transfected expression vector)
[4] = molecular target: STAT1 (from a transfected expression vector)
[5] = molecular target: STAT1 in interferon-treated human cells (human) (UniProt P42224)
Sequence of STAT1 in interferon-treated human cells (human) (P42224 2-750 limits assumed): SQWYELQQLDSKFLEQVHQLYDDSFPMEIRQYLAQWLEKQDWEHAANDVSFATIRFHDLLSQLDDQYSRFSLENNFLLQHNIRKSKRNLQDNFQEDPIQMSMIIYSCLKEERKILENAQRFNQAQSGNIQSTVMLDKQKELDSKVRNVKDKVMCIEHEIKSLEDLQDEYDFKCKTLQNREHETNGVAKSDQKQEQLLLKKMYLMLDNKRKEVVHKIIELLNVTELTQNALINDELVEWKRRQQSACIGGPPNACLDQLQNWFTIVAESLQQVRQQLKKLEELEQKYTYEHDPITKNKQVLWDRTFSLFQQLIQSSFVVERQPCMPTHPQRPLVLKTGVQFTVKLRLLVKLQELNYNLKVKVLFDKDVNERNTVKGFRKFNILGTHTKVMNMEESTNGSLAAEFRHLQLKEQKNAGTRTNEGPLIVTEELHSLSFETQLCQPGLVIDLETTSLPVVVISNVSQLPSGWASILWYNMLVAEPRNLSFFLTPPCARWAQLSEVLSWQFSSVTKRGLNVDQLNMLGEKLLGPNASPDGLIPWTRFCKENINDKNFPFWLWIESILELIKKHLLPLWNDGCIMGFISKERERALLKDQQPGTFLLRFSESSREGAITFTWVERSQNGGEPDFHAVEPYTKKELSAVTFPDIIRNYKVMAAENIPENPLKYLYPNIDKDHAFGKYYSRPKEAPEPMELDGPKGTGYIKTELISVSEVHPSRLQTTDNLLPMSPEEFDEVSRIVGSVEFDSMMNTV

Sequence of STAT3-STAT3 homodimer (human) (P40763 2-770 limits assumed): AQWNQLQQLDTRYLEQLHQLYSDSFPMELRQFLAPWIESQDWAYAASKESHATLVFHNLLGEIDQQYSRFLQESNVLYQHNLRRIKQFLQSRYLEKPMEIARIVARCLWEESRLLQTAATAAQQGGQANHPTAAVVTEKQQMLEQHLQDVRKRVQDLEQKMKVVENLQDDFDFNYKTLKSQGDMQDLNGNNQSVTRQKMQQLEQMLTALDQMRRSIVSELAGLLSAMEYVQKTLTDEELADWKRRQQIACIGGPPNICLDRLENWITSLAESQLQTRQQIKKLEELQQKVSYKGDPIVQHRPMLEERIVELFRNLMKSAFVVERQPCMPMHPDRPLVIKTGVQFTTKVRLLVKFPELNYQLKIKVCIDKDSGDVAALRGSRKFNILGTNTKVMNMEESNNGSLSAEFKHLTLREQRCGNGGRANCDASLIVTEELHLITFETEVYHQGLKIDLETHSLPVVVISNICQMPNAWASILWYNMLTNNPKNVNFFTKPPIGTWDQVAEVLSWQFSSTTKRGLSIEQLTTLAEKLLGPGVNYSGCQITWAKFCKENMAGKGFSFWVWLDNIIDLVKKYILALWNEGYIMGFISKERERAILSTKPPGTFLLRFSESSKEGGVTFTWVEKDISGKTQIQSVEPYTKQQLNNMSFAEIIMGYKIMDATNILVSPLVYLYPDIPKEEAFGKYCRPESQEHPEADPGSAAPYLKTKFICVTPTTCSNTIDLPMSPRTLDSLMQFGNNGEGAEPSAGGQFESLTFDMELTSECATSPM
Sequence of STAT3-STAT1 heterodimer (human) (P40763 2-770 limits assumed, chain 1 of 2): as the sequence (P40763 2-770 limits assumed) above
Sequence of STAT3-STAT1 heterodimer (human) (P42224 2-750 limits assumed, chain 2 of 2, further chain): as the sequence (P42224 2-750 limits assumed) above
Sequence of STAT1 (from a transfected expression vector) (P42224 2-750): as the sequence (P42224 2-750 limits assumed) above

DNA-binding activity in mobility gel shift assay, IL6-treated HepG2 nuclear extracts [1]: 100 ng
DNA-binding activity in mobility gel shift assay, IL6-treated HepG2 nuclear extracts [2]: 100 ng
B1: recombinant fusion protein of GST with PIAS3 (protein, not shown: a dimerising Fc or GST)
chain: MVMSFRVSELQVLLGFAGRNKSGRKHELLAKALHLLKSSCAPSVQMKIKELYRRRFPRKTLGPSDLSLLSLPPGTSPPVHPDVTMKPLPFYEVYGELIRPTTLASTSSQRFEEAHFTFALTPQQLQQILTSREVLPGAKCDYTIQVQLRFCLCETSCPQEDYFPPNLFVKVNGKLCPLPGYLPPTKNGAEPRGPAVRSTSHPWLDSQPLSPTPSLLIGHLSLDGITPCPCLVRQLTAGTLLQKLRAKGIRNPDHSRALIKEKLTADPDSEVATTSLPGVTHVPARKMRLTVPCRALTCAHLQSFDAALYLQMNEKKPTWTCPVCDKKAPYESLIIDGLFMEILNSCSDDDEIQFMEDGSWCPMKPKKEASEVCPPPGYGLDGLQYSAVQEGIQPESKKRVEVIDLTIESSSDEEDLPPTKKHCSPTSAAIPALPGSKGALTSGHQPSSVLRSPAMGTLGSDFLSSLPVHEYPPAFPLGADIQGLDLFSFLQTESQQYGPSVIISLDEQDTLGHFFQYRGTPSHFLGPLAPTLGSCHGSSTPAPPPGRVSSIVAPGSSLREGHGGPLPSGPSLTGCRSDVISLD

(4X)IRF-1 luciferase reporter in human 293 cells, IFN-α stimulation [3]: 1 µg
(4X)IRF-1 luciferase reporter in human 293 cells, IFN-α stimulation [4]: 1 µg
B2: FLAG-tagged PIAS3 (protein, not shown: small tags and cut ends)
chain: B1 chain

DNA binding activity in gel retardation assay, nuclear extracts of IFN-treated Daudi B cells [5]: 45 ng
B3: recombinant fusion protein of glutathione-S-transferase (GST) with PIAS1 (protein, not shown: a dimerising Fc or GST)
chain: MADSAELKQMVMSLRVSELQVLLGYAGRNKHGRKHELLTKALHLLKAGCSPAVQMKIKELYRRRFPQKIMTPADLSIPNVHSSPMPPTLSPSTIPQLTYDGHPASSPLLPVSLLGPKHELELPHLTSALHPVHPDIKLQKLPFYDLLDELIKPTSLASDNSQRFRETCFAFALTPQQVQQISSSMDISGTKCDFTVQVQLRFCLSETSCPQEDHFPPNLCVKVNTKPCSLPGYLPPTKNGVEPKRPSRPINITSLVRLSTTVPNTIVVSWTAEIGRNYSMAVYLVKQLSSTVLLQRLRAKGIRNPDHSRALIKEKLTADSDSEIATTSLRVSLLCPLGKMRLTIPCRALTCSHLQCFDATLYIQMNEKKPTWVCPVCDKKAPYEHLIIDGLFMEILKYCTDCDEIQFKEDGSWAPMRSKKVQEVTASYNGVDGCLSSTLEHQVASHNQSSNKNKKVEVIDLTIDSSSDEEEEEPPAKRTCPSLSPTSPLSNKGILSLPHQASPVSRTPSLPAVDTSYINTSLIQDYRHPFHMTPMPYDLQGLDFFPFLSGDNQHYNTSLLAAAAAAVSDDQDLLHSSRFFPYTSSQMFLDQLSAGGSTSLPATNGSSSGSNSSLVSSNSLRESHGHGVASRSSADTASIFGIIPDIISLD
